Results published in patent US10874712B2, “Methods, compounds and compositions for modulating blood brain barrier integrity and re-myelination” (University Health Network, priority 2015, dated 2020).

How the values were obtained:
[1] = test system: EAE-induced mice; test: Experimental Autoimmune Encephalomyelitis (EAE) mouse model, body condition score; type: in vivo; set-up: clinical severity (body condition score): dose or concentration left out as unconfirmed
[2] = sRGMc level in sera of treated mice by ELISA; type: in vivo, mouse
Method: Blood collected from the saphenous veins of mice induced with EAE at 0, 5, 10, 18 and 30 days in Microvette® CB300 capillary tubes (Starstedt) was spun down at 2000 rcf for 10 min and stored at −80° C. sRGMa and sRGMc in the sera were detected using ELISA kits for sRGMa (MRGMAO, R&D) and sRGMc (MRGMCO, R&D) according to manufacturer's instructions.
To ensure that over-expression of sRGMc was efficient, sera from 3 RGMc-treated mice were collected and compared to 3 vehicle-treated mice at 24 h post-treatment by ELISA. […] The mice were then observed and scored twice daily at 12 h intervals for 18 days. […] Whether intra-peritoneal (i.p) injections of RGMc could overcome the transient effects observed with intravenous administration of this protein was explored. […] Next the levels of RGMc in the sera of sham-treated animals and mice induced with EAE at day 10 as well as in EAE animals (day 10) that were injected with RGMc were analyzed. […] Thus, EAE reduced RGMc levels and over-expression of sRGMc in EAE-induced mice is beneficial in reducing the incidence and the severity as well as delaying the onset of disease.

[3] = test system: splenocytes and lymph node cells of EAE-induced mice; test: Flow cytometry of splenocytes and lymph node cells of treated EAE mice; type: in vivo, mouse
Method: Mice were euthanized at day 10 post-induction of EAE. Freshly isolated spleens and draining caudal lymph nodes (LN) were pressed using a syringe plunger through a 70 μm cell strainers and washed twice using 2 mL of 2% FBS in complete RPMI-1640 medium (Invitrogen) supplemented with […], L-glutamine, p/s, and non-essential amino acids. Single-cell suspensions were lysed with 7 mL of red blood cell (RBC) lysing buffer (Life Technologies) and centrifuged at 700 rcf for 5 mins. After washing three times with 2% RPMI-1640 medium, cells were counted and cultured as described below or were subjected to cell surface staining.
The expression of cell-surface markers and cytokine expression on splenocytes and LN cells were characterized by flow cytometry. For analysis of naïve cells, 5×10^5 RBC depleted splenocytes and LN cells were plated in 96-well V-bottom plates (Starstedt) and blocked with 50 μl of 1% mouse IgG in 2% FBS PBS supplemented with azide (PFN3) for 20 min at 4° C. Cells were then stained with the following primary conjugated antibodies from BioLegend for 30 min on ice: CD5 (53-7.3), CD3 (145-2C11), CD4 (GK1.5), CD8 (53-6.7), CD19 (6D5), CD11b (M1/70), CD11c (N418), CD80 (16-10A1), CD86 (GL-1), CD44 (IM7), MHCII (M5/114.15.12), CD62L (MEL-14), ICAM-1/CD54 (3E2), IL-17A (TC11-18H10.41), IFN-γ (XMG1.2). All antibodies were re-suspended in PFN3. When required, cells were washed twice with 100 μl of PFN3 and stained with secondary SA-APC, SA-APC-Cy7, SA-PeCy7, or SA-Percp-Cy5.5 for 30 min on ice. Cells were then washed twice with PFN3 and re-suspended in a PFN3 solution containing propidium iodide (PI) before proceeding to FACS analysis.
To examine intracellular cytokine production, 0.5×10^6 RBC-depleted splenocytes and LN cells were plated on 96-well flat bottom plates (BD Biosciences) in 10% FBS in complete RPMI-1640 in the presence of 0.5 μg/mL phorbol 12-myrisate 13-acetate (PMA), 0.5 μg/mL Ionomycin, and Golgistop (BD Biosciences) for 4 h. Cells were subsequently washed in PBS and stained with Near-Infrared Live Dead (Life Technologies) as described in the manufacturer's protocol. Cells were then washed twice in PFN3 and stained for cell surface markers as described previously. Cells were then fixed with 100 μl of Cytofix/Cytoperm solution as per manufacturer's protocol. For intracellular staining, cells were then stained with anti-IL-17A, and anti-IFN-γ for 30 min on ice, washed twice, and re-suspended in PFN3 before proceeding to FACS acquisition. Nonspecific background staining was determined by using fluorochrome-matched isotype antibodies and fluorescence minus one control. […] For each experiment, at least 100,000 live events were acquired and analyzed using Flowjo software (Tree Star Inc.).

[4] = test system: EAE-induced mice; test: Immunohistochemistry of spinal cord for CD3, B220, CD11b infiltrates; type: in vivo, mouse; conditions: EAE day 18; vs vehicle
Method: Spinal cords were isolated and post-fixed with 4% PFA overnight at 4° C., washed 3× with PBS and soaked in 30% sucrose in PBS for 48 h. Tissues were then embedded in Optimal Cutting Temperature (OCT) compound. Frozen sections of spinal cords were cut at 10-30 μm with a cryostat, mounted on gelatinized slides, dried for 2 h and stored at −80° C. Sections were then re-hydrated in PBS for 5 min and permeabilized with PBST (0.3% Triton X-100 in PBS) for 5 min. The tissues were then blocked (PBS, 0.3% Triton X-100, 3% FBS) for 1 h at room temperature and incubated with the following primary antibodies overnight at 4° C. in a humidified chamber: anti-CD3 (145-2C11, BioLegend); CD11b (M1/70, BioLegend); B220 (RA3-6B2, BioLegend), DAPI (MMS-435P, Sigma), Fibrinogen (D9542, Innovative Research).

[5] = test system: optic nerves of adult mice; test: Optic nerve crush and regeneration model (GAP43 staining); type: in vivo, mouse; conditions: 1 μg/ml intraocularly at 3 and 10 days after injury; day 21; vs control proteins
Method: Optic nerve crush experiments were performed on animals and recovery assessed by staining for axonal fibres. The optic nerves of adult mice were crushed using fine self-closing forceps. sRGMc (1 μg/ml) or control solution was injected intraocularly at 3 and 10 days after injury. Animals were sacrificed at day 21 and optic nerves were dissected and fixed in 4% PFA. The optic nerves were sectioned longitudinally at 14 microns and stained with GAP43 antibody to stain newly regenerating axons.

[6] = intra-peritoneal injections, vs vehicle

B1: sRGMc: truncated form of RGMc with the GPI anchor sequence removed, released as a soluble protein (SEQ ID NOs: 1 and 3) (protein, listed as Homo sapiens)
chain: CKILRCNAEYVSSTLSLRGGGSSGALRGGGGGGRGGGVGSGGLCRALRSYALCTRRTARTCRGDLAFHSAVHGIEDLMIQHNCSRQGPTAPPPPRGPALPGAGSGLPAPDPCDYEGRFSRLHGRPPGFLHCASFGDPHVRSFHHHFHTCRVQGAWPLLDNDFLFVQATSSPMALGANATATRKLTIIFKNMQECIDQKVYQAEVDNLPVAFEDGSINGGDRPGGSSLSIQTANPGNHVEIQAAYIGTTIIIRQTAGQLSFSIKVAEDVAMAFSAEQDLQLCVGGCPPSQRLSRSERNRRGAITIDTARRLCKEGLPVEDAYFHSCVFDVLISGDPNFTVAAQAALEDARAFLPDLEKLH
- disease severity [1, 6]: significantly abrogated disease severity
- incidence of EAE onset [1, 6]: decreased the incidence of EAE onset
- onset of disease [1, 6]: delayed the onset of disease
- day by which treated animals developed clinical symptoms ([1]; intravenous sRGMc at days 3, 6 and 9): ≤ 14 day post-induction
- clinical severity of the disease (body condition score) ([1]; intravenous sRGMc at days 3, 6 and 9 post-induction, vs vehicle, scored 18 days): significant decrease in clinical severity
- clinical severity (body condition score) ([1]; sRGMc every three days, vs PBS, FIG. 6B): markedly reduced
- increase in sRGMc levels in sera compared to vehicle-treated animals ([2]; 24 h post-treatment, ELISA, 3 mice per group): 3 fold
- RGMc levels in sera of EAE mice after RGMc injection ([2]; EAE day 10, compared to sham-treated animals): restored
- stability of sRGMc treatment in serum ([2]; ELISA, FIG. 4F): stable for 24 h post treatment
- expression profile of IL-17 and IFN-γ secreted by CD4+ T cells ([3]; PMA and ionomycin stimulated, EAE mice day 10): no effect
- expression of adhesion markers (ICAM-1 and CD62L) on CD4+ and CD8+ T cells and B cells ([3]; naive splenocytes and lymph node cells, vs vehicle): does not affect
- distribution of effector cells (CD3+, CD8+, CD4+ T cells) ([3]; splenocytes day 10, vs vehicle): does not alter
- distributions and activation of dendritic cells (CD11c+) and B cells (MHC II, CD80+/CD86+) ([3]; splenocytes day 10, vs vehicle): unaltered
- infiltration of B220+ cells into cervical spinal cords [4]: significantly reduced
- infiltration of CD3+ cells into cervical spinal cords [4]: significantly reduced
- infiltration of Cd11b+ cells into cervical spinal cords [4]: significantly reduced
- regeneration of axonal fibres at the site of injury (GAP43) [5]: promote the regeneration of axonal fibres
